For five molecules, binding result and IC50 results are on record in patent US20030232387A1 (Takeda / Millennium, published 2003).

Test [1] has as its target T1, α4β7 integrin expressed on transfected K562 cells (human, UniProt P13612 34-1032; P26010 20-798).
T1 construct: How the α4β7 transfectants were made is not described; also called α4β7 transfectants
Put plainly: flow cytometry on K562 α4β7 transfectants. In general terms: A flow cytometer gives signals particle by particle.

In test [2] the target is T2, human αEβ7 integrin expressed on cells (human, UniProt P38570 19-1179; P26010 20-798).
T2 construct: also called K562 transfectants that express αEβ7; L1.2 αEβ7 transfectants
The experiment in a line: cell adhesion assay, inhibition of K562 αEβ7 cells binding to immobilised E-cadherin-IgG. Here is the method:
ELISA plates were coated with 100 ng/well E-cadherin-IgG fusion protein in TBS (20 mM Tris, 140 mM NaCl, pH 9)/1 mM CaCl₂ overnight at 4° C. Plates were washed with wash buffer (HBSS/1 mM CaCl₂), and blocked with HBSS/1 mM CaCl₂/2% BSA for one hour at 37° C. After blocking, plates were washed twice with wash buffer. K562 transfectants at log growth stage were collected, washed once in HBSS/0.2% BSA/1 mM CaCl₂/1 mM MgCl₂, and resuspended to 4×10⁶ cells/mL in the same buffer. Cells were labeled with the fluorecent dye BCECF-AM (Molecular Probes, 4 μg/ml final concentration) for 15 minutes at […]. Labeled cells were washed twice, and resuspended in assay buffer (HBSS/0.2% BSA/1 mM CaCl₂/1 mM MgCl₂/1 mM MnCl₂) to 8×10⁵ cells/mL. 50 μl of the cell suspension was added to the E-cadherin-IgG coated well (4×10⁴ cells/well), and mixed with 50 μl assay buffer containing antibodies with desired concentration, or isotype-matched control antibody. The plate was then incubated at room temperature for 1 hour. The fluorescence content in each well was read on a Fluorescent Concentration Analyser (IDEXX, Westbrook, Me.) before and after three washes with HBSS/0.5 mM CaCl₂/0.5 mM MgCl₂/0.5 mM MnCl₂ using a Microplate Autowasher (Bio-Tek instruments, Winooski, Vt.). The Microplate Autowasher was programmed with parameters: 250 μl wash volume, 1× wash cycle, 0 soak time, and aspiration tube depth of 70. The bound cells (after washes) were expressed as a percentage of total input cells (before washes) in each well. Each sample was set up in triplicate wells.

The target in test [3] is mutant αEβ7 integrin, αE F298A, on transfected K562 cells (human, UniProt P38570 19-1179; P26010 20-798, F298A). The experiment in a line: flow cytometry on K562 cells expressing αEβ7 with αE F298A. Here is the method: The fine specificity of mAb 5E4 was determined using a panel of transfected K562 cells that expressed various mutant αEβ7 integrins and detecting antibody binding to the transfectants by flow cytometry. The mutants proteins and methods used have been previously described in Higgins, J. M. G. et al., J. Biol. Chem. 275:25652-25664 (2000). The mutant αEβ7 integrins used contained the following mutations in the αE chain: R159S/R160S; ΔE163-E180; ΔE176; D190A; G193A; D199A; R202A/D205A; G230A/V231A; D240A; F298A; P311H/E345A/T346A; E325A; and Y354W. (See, Higgins, J. M. G. et al., J. Biol. Chem. 275:25652-25664 (2000).)
The fine specificity of mAb 5E4 was examined using transfected K562 cells that expressed αEβ7 integrin or mutated version of αEβ7 integrins, and antibody binding was detected by flow cytometry. Antibody binding was inhibited by deletion of amino acid residues 163-180 (ΔE163-E180; amino acid residues 163-180 of SEQ ID NO: 2), which are in the X domain of integrin αE chain, and was essentially abrogated by mutation of amino acid residue 298 (amino acid residue 298 of SEQ ID NO:2), which is in the I-domain, from Phenylalanine to Alanine (F298A).

“And” between values parts separate entries of the source, which are not always exact repeats. Identical values can stand only once.

T1 sequence (P13612 34-1032 R878Q limits assumed, chain 1 of 2): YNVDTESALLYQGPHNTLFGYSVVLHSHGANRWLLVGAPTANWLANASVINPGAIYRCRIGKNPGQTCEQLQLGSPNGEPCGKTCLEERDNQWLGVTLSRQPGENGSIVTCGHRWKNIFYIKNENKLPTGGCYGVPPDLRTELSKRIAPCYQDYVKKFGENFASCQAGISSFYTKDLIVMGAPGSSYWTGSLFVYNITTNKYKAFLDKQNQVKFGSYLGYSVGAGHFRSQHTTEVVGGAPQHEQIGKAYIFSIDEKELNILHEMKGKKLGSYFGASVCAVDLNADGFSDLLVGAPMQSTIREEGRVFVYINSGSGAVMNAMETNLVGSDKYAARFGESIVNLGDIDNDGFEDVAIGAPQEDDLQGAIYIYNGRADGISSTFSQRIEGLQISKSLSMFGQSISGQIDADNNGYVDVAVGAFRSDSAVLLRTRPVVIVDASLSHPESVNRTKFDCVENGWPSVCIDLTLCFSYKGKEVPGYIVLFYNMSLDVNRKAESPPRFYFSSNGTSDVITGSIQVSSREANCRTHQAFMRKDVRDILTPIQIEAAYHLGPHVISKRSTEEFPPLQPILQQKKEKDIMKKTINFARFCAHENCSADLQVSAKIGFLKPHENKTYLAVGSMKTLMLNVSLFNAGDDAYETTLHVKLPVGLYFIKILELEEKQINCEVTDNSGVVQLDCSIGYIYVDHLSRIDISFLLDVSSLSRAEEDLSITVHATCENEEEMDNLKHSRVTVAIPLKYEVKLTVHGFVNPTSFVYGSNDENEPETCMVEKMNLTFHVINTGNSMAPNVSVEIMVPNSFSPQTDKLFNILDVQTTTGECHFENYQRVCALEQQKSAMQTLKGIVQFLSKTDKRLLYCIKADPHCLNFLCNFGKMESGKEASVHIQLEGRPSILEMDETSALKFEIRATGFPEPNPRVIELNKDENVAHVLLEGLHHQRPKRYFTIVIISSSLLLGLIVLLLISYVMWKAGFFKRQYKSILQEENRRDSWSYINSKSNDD
T1 sequence (P26010 20-798 limits assumed, chain 2 of 2): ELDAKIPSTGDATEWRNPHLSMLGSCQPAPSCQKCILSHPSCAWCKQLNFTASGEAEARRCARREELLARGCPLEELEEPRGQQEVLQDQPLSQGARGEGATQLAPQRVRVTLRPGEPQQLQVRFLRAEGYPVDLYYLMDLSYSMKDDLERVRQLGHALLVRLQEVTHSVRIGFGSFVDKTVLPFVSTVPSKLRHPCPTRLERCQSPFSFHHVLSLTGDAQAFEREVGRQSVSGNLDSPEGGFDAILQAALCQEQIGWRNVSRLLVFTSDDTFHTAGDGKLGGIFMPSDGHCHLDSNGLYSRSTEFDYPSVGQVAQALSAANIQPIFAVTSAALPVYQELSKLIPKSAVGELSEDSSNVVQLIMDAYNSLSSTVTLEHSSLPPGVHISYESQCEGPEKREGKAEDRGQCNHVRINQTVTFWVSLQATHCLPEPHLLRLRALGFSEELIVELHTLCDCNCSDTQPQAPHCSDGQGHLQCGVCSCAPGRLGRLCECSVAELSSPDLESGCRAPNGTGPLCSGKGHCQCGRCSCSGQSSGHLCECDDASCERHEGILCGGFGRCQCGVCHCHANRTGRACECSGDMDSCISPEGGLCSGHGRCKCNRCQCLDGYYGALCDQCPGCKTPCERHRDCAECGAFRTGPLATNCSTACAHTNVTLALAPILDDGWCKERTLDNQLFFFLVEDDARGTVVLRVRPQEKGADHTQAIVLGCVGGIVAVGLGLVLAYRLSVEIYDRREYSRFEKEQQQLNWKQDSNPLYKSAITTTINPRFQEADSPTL
T2 sequence (P38570 other isoform, or with tags, fused parts or gaps limits assumed, chain 1 of 2): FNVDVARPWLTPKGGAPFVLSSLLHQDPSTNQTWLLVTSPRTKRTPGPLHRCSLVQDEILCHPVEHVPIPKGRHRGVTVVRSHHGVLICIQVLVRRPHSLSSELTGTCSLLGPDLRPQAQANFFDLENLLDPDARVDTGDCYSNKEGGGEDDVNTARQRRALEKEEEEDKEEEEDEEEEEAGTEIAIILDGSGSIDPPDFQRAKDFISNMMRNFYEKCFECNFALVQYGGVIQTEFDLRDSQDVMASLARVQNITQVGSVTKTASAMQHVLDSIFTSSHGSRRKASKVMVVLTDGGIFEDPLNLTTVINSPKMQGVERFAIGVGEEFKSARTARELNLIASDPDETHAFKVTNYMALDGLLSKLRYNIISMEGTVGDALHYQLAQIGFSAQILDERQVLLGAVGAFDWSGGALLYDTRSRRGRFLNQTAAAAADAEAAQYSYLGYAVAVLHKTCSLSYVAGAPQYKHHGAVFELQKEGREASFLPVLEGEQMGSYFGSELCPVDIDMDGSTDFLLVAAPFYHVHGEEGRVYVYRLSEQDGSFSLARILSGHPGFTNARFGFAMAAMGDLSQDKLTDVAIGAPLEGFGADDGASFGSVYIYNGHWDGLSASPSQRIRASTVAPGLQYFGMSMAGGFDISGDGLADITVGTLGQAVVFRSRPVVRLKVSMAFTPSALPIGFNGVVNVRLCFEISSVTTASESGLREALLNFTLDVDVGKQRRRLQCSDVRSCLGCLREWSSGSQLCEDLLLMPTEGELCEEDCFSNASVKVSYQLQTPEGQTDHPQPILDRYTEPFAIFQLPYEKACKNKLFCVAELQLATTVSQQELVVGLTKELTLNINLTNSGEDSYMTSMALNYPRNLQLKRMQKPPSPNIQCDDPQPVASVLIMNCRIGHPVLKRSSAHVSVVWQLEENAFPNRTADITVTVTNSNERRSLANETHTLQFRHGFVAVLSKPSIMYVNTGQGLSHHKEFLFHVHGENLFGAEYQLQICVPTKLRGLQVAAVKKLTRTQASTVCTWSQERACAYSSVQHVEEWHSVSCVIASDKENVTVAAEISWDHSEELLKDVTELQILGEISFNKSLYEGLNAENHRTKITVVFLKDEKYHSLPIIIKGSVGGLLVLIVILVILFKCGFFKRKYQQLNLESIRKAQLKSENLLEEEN
T2 sequence (P26010 20-798 limits assumed, chain 2 of 2): as the sequence (P26010 20-798 limits assumed, chain 2 of 2) above
Chain of mutant αEβ7 integrin, αE F298A, on transfected K562 cells (P38570 other isoform, or with tags, fused parts or gaps F298A | F298A F298A, chain 1 of 2): as the sequence (P38570 other isoform, or with tags, fused parts or gaps limits assumed, chain 1 of 2) above, with F298A counted along it
Chain of mutant αEβ7 integrin, αE F298A, on transfected K562 cells (P26010 20-798, chain 2 of 2): as the sequence (P26010 20-798 limits assumed, chain 2 of 2) above

B1: mAb 3G6 (IgG1) (antibody, V domains shown)
VH: EVQLVQSGAEVKKPGESLKISCKGSGYSFTSYWIGWVRQMPGKGLEWMGIIYPGDSGPRYSPSFQGQVTISADKSISTAYLQWSSLKASDTAMYYCARLSYTSTWYPYYFDYWGQGTLVTVSS
VL: not shown
notes: Human antibody; also called converted 3G6 (IgG1); antibody produced by CHO 3G6 C1.2D6
In the case of B1, the binding result in test [1] is reported as “no binding”. In addition, in test [2], the IC50 is ~2.04 µg/mL and ~13.4 nM.

B2: mAb 8D5 (IgG1) (antibody, V domains shown)
VH: QVQLQESGPGLVKPSETLSLTCTVSGGSVSSYYWSWIRQPPGKGLEWIGHIYYSGNTNYNPSLKSRVTISVDTSKNQFSLKLSSVTAADTAVYFCARDRWNYYDSSPGYYYYYGMDVWGQGTTVTVSS
VL: DIQMTQSPSSLSASVGDRVTITCRASQGIRNDLGWYQQKPGKAPKRLIFAASHLQSGVPSRFSGSGSGTEFTLTISSLQPEDFATYYCQQHNSSPFTFGPGTRVDIK
notes: The variable domains are the same either way
For the molecule B2, in test [2], the IC50 is ~0.715 µg/mL and ~4.7 nM.

B3: mAb 8D5 (antibody, V domains shown)
VH: B2 VH
VL: B2 VL
notes: also called 8D5 IgG2; human mAb 8D5 (IgG2)
Regarding B3, the binding result in test [1] was “no binding”.

B4: mAb 5E4 (IgG1) (antibody, V domains shown)
VH: EVQLVESGGGLVQPGGSLRLSCAASGFTFSNFWMSWVRQAPGKGLEWMANIKQDGSEKYYVDSVKGRFTISRDNAKSSLFLQMNSLRVDDTAVYFCAGDYYDSGSFYWGQGTLVTVSS
VL: EIVLTQSPATLSLSPGERATLSCRASQSVRSNLAWYQQKPGQAPRLLIYDASNRAIGIPARFSGSGSGTDFTLTISSLEPEDFVVYYCQQRSNWPPWTFGQGTKVEIK
notes: Human antibody; also called converted 5E4 (IgG1); antibody produced by CHO 5G4 A1.2C12
Regarding B4, the binding result in test [1] was “no binding”. Besides, the IC50 in test [2] was ~1.29 µg/mL and ~8.5 nM.

B5: mAb 5E4 (antibody, V domains shown)
VH: B4 VH
VL: B4 VL
notes: The variable domains are the same as in m3 and m4
Take B5: the binding result in test [3] was “no binding”.

In general, IC50 refers to the concentration needed to halve the response being measured.
